Measured values reported in US20110256132A1 (published 2011).
* marks the point of attachment. Biotin = O=C1N[C@H]2[C@H](CS[C@H]2CCCCC(=O)*)N1

How the values were obtained:
[1] = biological target: T1, artificial myostatin linear peptide 21 (cysteine pairing not given here); experiment: SRU BIND reader, peptides captured on streptavidin biosensor plate
T1 construct: also called Peptide No 21
T1 peptide: Biotin-SGSGNYCSGECEFVFLQK-NH2
Experimental: (§1) Work was carried out on an SRU BIND reader (SRU Biosystems). A streptavidin biosensor plate was washed, a baseline reading taken, and biotinylated peptides captured onto the streptavidin coated biosensor plate. The plate was washed again, and a new baseline reading taken, antibody was then added and binding monitored.

[2] = biological target: T2, artificial myostatin linear peptide 49 (cysteine pairing not given here); experiment: as above
T2 construct: also called Peptide No 49
T2 peptide: Biotin-SGSGGKIPAMVVDRCGCS-OH
Experimental: as §1

[3] = biological target: T3, artificial myostatin linear peptide 25 (SMILES …); experiment: as above
T3 construct: also called Peptide No 25
T3 peptide: Biotin-SGSGFVFLQKYPHTHLVH-NH2
Experimental: as §1

[4] = biological target: T4, artificial myostatin linear peptide 23 (SMILES …); experiment: as above
T4 construct: also called Peptide No 23
T4 peptide: Biotin-SGSGGECEFVFLQKYPHT-NH2
Experimental: as §1

[5] = biological target: T5, artificial myostatin linear peptide 3 (cysteine pairing not given here); experiment: as above
T5 construct: also called Peptide No 3
T5 peptide: Biotin-SGSGDCDEHSTESRCCRY-NH2
Experimental: as §1

[6] = biological target: T6, artificial myostatin linear peptide 43 (SMILES …); experiment: as above
T6 construct: also called Peptide No 43
T6 peptide: Biotin-SGSGLYFNGKEQIIYGKI-NH2
Experimental: as §1

[7] = biological target: T7, artificial myostatin linear peptide 9 (SMILES …); experiment: as above
T7 construct: also called Peptide No 9
T7 peptide: Biotin-SGSGRYPLTVDFEAFGWD-NH2
Experimental: as §1

[8] = biological target: T8, artificial myostatin linear peptide 47 (SMILES …); experiment: as above
T8 construct: also called Peptide No 47
T8 peptide: Biotin-SGSGIIYGKIPAMVVDRC-NH2
Experimental: as §1

[9] = biological target: T9, artificial myostatin linear peptide 37 (cysteine pairing not given here); experiment: as above
T9 construct: also called Peptide No 37
T9 peptide: Biotin-SGSGCCTPTKMSPINMLY-NH2
Experimental: as §1

[10] = biological target: T10, artificial myostatin linear peptide 39 (SMILES …); experiment: as above
T10 construct: also called Peptide No 39
T10 peptide: Biotin-SGSGTKMSPINMLYFNGK-NH2
Experimental: as §1

[11] = biological target: T11, artificial myostatin linear peptide 27 (SMILES …); experiment: as above
T11 construct: also called Peptide No 27
T11 peptide: Biotin-SGSGQKYPHTHLVHQANP-NH2
Experimental: as §1

[12] = biological target: T12, artificial myostatin linear peptide 31 (cysteine pairing not given here); experiment: as above
T12 construct: also called Peptide No 31
T12 peptide: Biotin-SGSGVHQANPRGSAGPCC-NH2
Experimental: as §1

[13] = biological target: T13, artificial myostatin linear peptide 45 (SMILES …); experiment: as above
T13 construct: also called Peptide No 45
T13 peptide: Biotin-SGSGGKEQIIYGKIPAMV-NH2
Experimental: as §1

[14] = biological target: T14, artificial myostatin linear peptide 33 (cysteine pairing not given here); experiment: as above
T14 construct: also called Peptide No 33
T14 peptide: Biotin-SGSGNPRGSAGPCCTPTK-NH2
Experimental: as §1

[15] = biological target: T15, artificial myostatin linear peptide 17 (SMILES …); experiment: as above
T15 construct: also called Peptide No 17
T15 peptide: Biotin-SGSGIAPKRYKANYCSGE-NH2
Experimental: as §1

[16] = biological target: T16, artificial myostatin linear peptide 5 (cysteine pairing not given here); experiment: as above
T16 construct: also called Peptide No 5
T16 peptide: Biotin-SGSGHSTESRCCRYPLTV-NH2
Experimental: as §1

[17] = biological target: T17, artificial myostatin linear peptide 1 (not fully specified); experiment: as above
T17 construct: also called Peptide No 1
T17 peptide: H-DFGLDCDEHSTESRGSG-NH2
Experimental: as §1

[18] = biological target: T18, artificial myostatin linear peptide 35 (cysteine pairing not given here); experiment: as above
T18 construct: also called Peptide No 35
T18 peptide: Biotin-SGSGSAGPCCTPTKMSPI-NH2
Experimental: as §1

[19] = biological target: T19, artificial myostatin linear peptide 15 (SMILES …); experiment: as above
T19 construct: also called Peptide No 15
T19 peptide: Biotin-SGSGWDWIIAPKRYKANY-NH2
Experimental: as §1

[20] = biological target: T20, mature myostatin (recombinant, dimeric) (mouse polyprotein used for in-house …, UniProt O08689 268-376); experiment: cell-based or functional assay
T20 sequence: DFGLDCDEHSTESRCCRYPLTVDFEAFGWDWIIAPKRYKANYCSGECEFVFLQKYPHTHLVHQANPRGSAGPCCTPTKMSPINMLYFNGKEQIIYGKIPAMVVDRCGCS

[21] = biological target: T20, mature myostatin (recombinant, dimeric); experiment: ELISA, plate-coated myostatin (R&D Systems), mean EC50
Experimental: 10B3 and 10B3 chimera (10B3C) bound myostatin (R&D Systems, 788-G8-010/CF) in a sandwich ELISA. Plates were coated with myostatin at 10 ng/well and blocked with Block solution (PBS, 0.1% TWEEN and 1% BSA). Following washing (PBS, 0.1% TWEEN), antibody was incubated at 37° C. for 2 hours over a dilution series and plates washed again prior to incubation at 37° C. for 1 hour with anti-mouse HRP or anti-human HRP (Dako, P0161 & Sigma, A-8400, respectively). Plates were again washed and OPD substrate (Sigma, P9187) added until colourometric reaction occurred and the reaction stopped by the addition of H₂SO₄.

B1: mouse monoclonal antibody 10B3 (antibody, V domains shown)
VH: EVQLQQSGPELVKPGASVKISCKASGYSFTGYFMHWVKQSHGNILDWIGNIYPYNGVSNYNQRFKAKATLTVDKSSSTAYMELRSLTSEDSAVYYCARRYYYGTGPADWYFDVWGTGTTVTVSS
VL: DIKMTQSPSSMYASLRERVTITCKASQDINSYLSWFQQKPGKSPKTLIYRANRLVDGVPSRFSGSGSGQDYSLTISSLEYEDMGIYYCLQCDEFPLTFGAGTKLELK
notes: Mouse IgG2a/kappa from hybridoma; also called 10B3 mouse parental; 10B3 parental
binding result [1]: no binding
binding result [2]: no binding
binding result [3]: no binding
binding result [4]: no binding
binding result [5]: no binding
binding result [6]: no binding
binding result [7]: no binding
binding result [8]: no binding
binding result [9]: no binding
binding result [10]: no binding
binding result [11]: no binding
binding result [12]: no binding
binding result [13]: no binding
binding result [14]: no binding
binding result [15]: no binding
binding result [16]: no binding
binding result [17]: no binding
binding result [18]: no binding
binding result [19]: no binding
Mean IC50, myostatin responsive reporter gene assay (A204 cells, luciferase) [20]: 10 nM
EC50 [21]: 0.069 µg/mL
